# Data: the nanobody polyreactivity screen of Harvey et al. (2022)
# Assay: yeast display, Sf9 membrane polyspecificity reagent, FACS + sequencing; frameworks hold sequencing errors
# Outline: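 Nanobodies from a synthetic yeast display library (Saccharomyces cerevisiae BJ5465), induced 36–48 hours with galactose, were stained 1 hour at 4 °C with 10% biotinylated, detergent-solubilized Sf9 membrane reagent, enriched on streptavidin microbeads, then FACS-sorted. Anti-HA (expression) and streptavidin (reagent binding) fluorescence set low and high (top ~1%) gates. Polyreactivity labels come from the gate of origin. Genes were colony-PCR amplified, MiSeq 2 × 250 sequenced and filtered by CDR length.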
row,Sequence,polyreactivity (PSR sort gate)
1,QVQLVESGGGLVQAGGSLRLSCAASGRIFYGNARGWYRQAPGKERELVATISSSGGRTPYADSVKGRFTISRDNAKNTVYLQMNSLKPEDTAVYYCAAQGYWTGYDYWGQGTQVTVSS,high polyreactivity
2,QVQLVESGGGLVQAGGSLRLSCAASGRIFYGNVMGWYRQAPGKERELVAAITRSGGSTYYADSVKGRFTISRDYAKNTVYLQMNSLKPEDTAVYYSNDALVSRDRSYEYWGQGTQVTVSS,high polyreactivity
3,QVQLVESGGGLVQAGGSLRLSCAASGRIFYGYAMGWYIQAPGKERELVAAITYIGGTYYADSVKGRFTISRDNAKNTVYLQMNSQKPEDTSVYYCASEPFYNFVYYTYPYWYDYWGQGTQVTVSS,low polyreactivity
4,QVQLVESGGGLVQAGGSLRLSCAASGRIFYGYAMGWYRQAPGKERELVAAISRGGTRTFYADSVKGRFTISRDNAKNTVYLQMNSLKPEDTAVYYCAADPGPHRYSYDYWGQGTQVTVSS,high polyreactivity
5,QVQLVESGGGLVQAGGSLRLSCAASGRIFYGYAMGWYRQAPGKERELVAAISSGGITYYADSVKGRFTISRDNAKNTVYLQMNSLKPEDTAVYYCAATVLGDYEYWGQGTQVTVSS,low polyreactivity
6,QVQLVESGGGLVQAGGSLRLSCAASGRIFYGYAMGWYRQAPGKERELVAASRYSGGSTYADSVKGRFTISRDNAKNTVFLQMNSLKPEVTAVYYCAAGDAPYVAWDQYQDNVFRYDYWGQGTQVTVSS,low polyreactivity
7,QVQLVESGGGLVQAGGSLRLSCAASGRIFYGYAMGWYSQAPGKEREVVATITGIGGSTYADSVKGRFTISRDHAKNTVYLQMNSLKPEDTAVYYCNAERGVYWGRYPYKYDYWGQGTQVTVSS,low polyreactivity
8,QVQLVESGGGLVQAGGSLRLSCAASGRIFYGYTMGWYRQAPGKERELVAAISSSGGSTYYADSVKGRFTISRDNAKNTVYLQMNSLIPEDTAVYYCAAYVPYSPYHVEFNYWGQGTQVTVSS,high polyreactivity
9,QVQLVESGGGLVQAGGSLRLSCAASGRIFYGYTMGWYRQAPGKERELVADISWRGGSTSYADSVKGRFTISRDNAKNTVYLQMNSLKPEDTAVYYCAKRYRPESLYPFYNPYDYWGQGTQVTVSS,low polyreactivity
10,QVQLVESGGGLVQAGGSLRLSCAASGRIFYGYVMGWYRQAPGKERELVAAITWSGSRTYYADSVKGRFTISRDNAKNTVYLQMNSLKPEDTAVYYCAARIPSDGYYYWGQGTQVTVSS,high polyreactivity
11,QVQLVESGGGLVQAGGSLRLSCAASGRIFYINAMGWSRQAPGKERELVAAITEGGVSTYYADSVKGRFTISRDNAKNTVYLQMNSLKPEDTAVYYCNTTGGPDGIVIYEYWGQGTQVTVSS,low polyreactivity
12,QVQLVESGGGLVQAGGSLRLSCAASGRIFYINAMGWYRQAPGKERELVAAITEGGVSTYYADSVKGRFTISRDNAKNTVYLQMNSLKPEDTAVYYCNTTGGPDGIVIYEYWGQGTQVTVSS,low polyreactivity
13,QVQLVESGGGLVQAGGSLRLSCAASGRIFYINAMGWYRQAPGKERELVASITGSGGRTYYADSVKGRFTISRDNAKNTVYLQMNSLKPEDTAVYYCNADLYVGYLYYLYDYWGQGTQVSVSS,low polyreactivity
14,QVQLVESGGGLVQAGGSLRLSCAASGRIFYINTMGWYRQAPGKERELVAAISRRGGSTYYADSVKGRFTISRDNAKNTVYLQMNSLKPEDTAVYYCAARDQYGPGYRSESLDSWGQGTQVTVSS,low polyreactivity
15,QVQLVESGGGLVQAGGSLRLSCAASGRIFYIYAMGWYRQAPGKERELVAAISTGGGGTYYADSVKGRFTISRDNAKNTVYLQMNSLKPEDTAVYYCAVDSKPRYREFDYWGQGTQVTVSS,high polyreactivity
16,QVQLVESGGGLVQAGGSLRLSCAASGRIFYIYAMGWYRQAPGKERELVATISVSGGRTYYADSVKGRFTISRDNAKNTVYLHMNSLKPEDTAVYYCAKEGRFNIHKWYDYWGQGTQVTVSS,low polyreactivity
